According to US20260209316A1 (US Dept. of Health and Human Services, published 2026):
Numbering of substitutions follows the chain as printed.

B1: antibody 233S (antibody, V domains shown)
VH: EVQLVESGGGLGQPGGSLRLSCAASGFKFKIFGMNWVRQAPGKGLEWVSYISSRSSIIYYADSVKGRFTISRDDATNSLFLQMNSLRDEDTAMYYCVRDYNLIDFVWGSLFDYWGQGILVTVSS
VL: AIRMTQSPSSLSASTGDSVTITCRASQNIASYLAWYQQIPGKAPKLLIYVASTLQSGVPSRFSGSGSGTDFTLTISSLQSEDFATYYCQQYYRYPPTFGQGTKVEIK
B2: antibody 503S (antibody, V domains shown)
VH: QVQLVQSGAEVKKPGASVRVSCKASGYTFTSYYMHWVRQAPGQGLEWMGQINPSGGTTRYERKFQGRITVTRDTSTSTVYLELSSLRSEDTASYFCACLRDKVTYYDLWSGVDSVWGQGTLVTVSS
VL: DIQMTQSPSSLSASVGDRVTITCRASQDISTWLAWYQQKPEKAPKSLIYAASTLETGVPSRFSGSGSGTDFTLTISSLQPEDFATYYCEQYNGFPRTFGQGTKLDIK
B3: antibody 294S (antibody, V domains shown)
VH: QVQLQESGPGLVKPSQTLSLTCTVSGGSISSGGYHWSWIRQHPGKGLEWIGNIYYNGRTYYNPSLKSRVTISVDTSENEFSLKLSSVTAADTAVYYCARDRRRPRIGHDYGMDVWGQGTKVIVSS
VL: DIQMTQSPSSLSASVGDRVTISCRASQSISNFLNWYQQKPGQAPKLLIYTASNLQSGVPSRFSGSGSGTDFTLTISSLQPEDFATYYCQQIYNTGMYSFGQGTKLEIKR
B4: antibody 241S (antibody, V domains shown)
VH: QVQLVQSGSELKKPGASVKVSCKASGYTFTSYTVNWVRQAPGQGLEWMGWINTNTGNPTYAQGFTGRFVFSSDTSVSTAYLQISDLKAEDTAMYYCARHVAYDLWSGHTVTFDHWGQGTLVTVSS
VL: QSALTQPPSASGSPGQSVTISCTGTSSDVGAYNYVSWYQQHPGKAPKLIIYEVTKRPSGVPDRFSGSKSGNTASLTVSGLQAEDEADYYCSSKAGGKTYVFGTGTKVTVL
B5: antibody 528S (antibody, V domains shown)
VH: EVQLAESGGGVVQPGRSLRLSCAASGFTFNSYGMHWVRQAPGKGLEWVAVIWDDGSKKYYADSVKGRFTISRDNSKNTLFLQMNSLRAEDTAVYYCARETIMFTFGEVIVSSRDNYYMDVWGKGTTVTVSS
VL: EIVLTQSPATLSLSPGERATLSCRASQSVSNYLAWYQQKPGQAPRLLIYDASTRAIGIPARFSGVGSGTDFTLTISSLEPEDFAVYYCQQRSNWPPLTFGGGTKVEIK
B6: antibody 203S (antibody, V domains shown)
VH: QVQLVQSGAEVKKPGSSVKVSCKASGGTFSSYAISWVRQAPGQGLEWLGRILPALGLANYAQKYQDRVKITADKSTSTAYMELSRLGSEDTAVYYCARDRWVGAARRGQYFDYWGQGTQVTVSS
VL: DIQMTQSPATLSASVGDRVTITCRASQSIGTWLAWYQQKPGKAPKLLIYDASSLESGVPPRFSGSGSETEFTLTISSLQPDDFATYYCHQYKSYSYTFGQGTKLEIK
B7: antibody 338S (antibody, V domains shown)
VH: EVQLVESGGGVVQPGRSLRLSCAASGFTFSQYGMHWVRQAPGKGLECVAVIWFDGSKKYYGDSVKGRFTISRDNSKNTLYLQMNSLRAEDTAVYFCARESLYYYDSGGHYYERGRIDYWGQGTLVTVSS
VL: DIQMTQSPSSLSASVGDRVTITCRASQDISNFLAWFQQKPGKAPKSLIYAASSLLSGVPSKFSGSGSGTDFTLTISSLQPEDFATYYCQQYNSYPPTFGQGTKLEIK
B8: antibody 315S (antibody, V domains shown)
VH: EVQLVESGGGVVQPGRSLRLSCAASGFTFKTYTMHWVRQAPGKGLEWVAVITDDGVNKKYADSVKGRFTISRDNSKNTLYLQMNSLRLEDTAVYYCARSVVVLAAYPLDYWGQGTMVTVSS
VL: DIQMTQSPSSLSASVGDRVTITCRASQTISTYLHWYQQRPGKAPKLLIYAASSLQSGVPSRVSGSGSGTDFTLTITSLQPEDFATYYCLQTYSLPLTFGGGTNVEIK
B9: antibody 377S (antibody, V domains shown)
VH: QVQLVQSGAEVKKPGSSVKVSCKASGGTFSNYAINWVRQAPGQGLEWMGRTIPFLGLTNYAENFQARVTITADKSTGTSYMQLSSLRSEDTAVYFCAKAATSGWSPFDNWGQGTLVTVSS
VL: EIVLTQSPGTLSLSPGERATLSCRASQSISSSYFGWYQQKPGQAPRLLIYGASRRAAGIPDRFSCSGSGTDFTLTISRLEPEDFGVYYCQQYGSSPTFGQGTKVEIK
B10: Fab generated from 316L (Fab, V domains shown)
VH: EERLVESGGGLVQPGGSLRLSCAASGFTFGDYAMHWVRQVPGKSLEWLSGISWSGYTTYSADSVKGRFTISRDNAKNSLYLQMNRLRPEDTGLYYCVTLIGAIGIKDSLDVWGRGVLVTVSS
VL: QSVLTQPPSVSGAPGQRVTVSCSGSSSNIGAGNYVQWYQQLPGTAPKVLIYQTEKRPSGTSDRFSGSKSDTSASLTINGLQSEDEADYYCQVYDSNLNGWVFGGGTRLTVL
notes: also called 316L Fab
B11: Fab generated from 380L (Fab, V domains shown)
VH: EVQLVESGGGLVQPGGSLTLSCAASGFTFGDYVMHWVRQVPGRGLEWLSAVSWSGYTTYSADSVKGRFTISRDNAKNSLYLQMSRLGTADTGLYYCVTLIGAIGIRDSFDAWGRGVLVTVSS
VL: B10 VL with V10M, S23T, E54D, T60I, D70G, N78S, N96S
notes: also called 380L Fab
B12: antibody 315L (antibody, V domains shown)
VH: QVQLQESGPGLVKPSETLSLTCTVSGGSITGNYWTWVRQPPGKGLQYIGRFDAGGKTYYNPPLKSRVSILGDKSKNQVSLNLTSVTVADTGVYYCAREQWGQLLSGSFDVWGRGVLVTVSS
VL: SYELTQPPSVSVSPGQTARITCSGDALPDYYAHWYQQKSGQAPMLVIYKDTERPSGIPERFSGSSSGTTVSLTISGVQAEDEADYYCQSGDSSGNHWVFGGGTRLTVL

biological target: T1, mucin domain-deleted Sudan GP (GPdMuc) (Sudan virus (SUDV), UniProt Q7T9D9 33-632); experiment: BLI competition on Sudan GPdMuc (lower table); competitor 16F6
T1 construct: also called Sudan GPdMuc; GP(S)dMuc

Binder	% inhibition of binding [%]
B1	22.9
B2	24.9
B3	13.3
B4	28.2

biological target: T1, mucin domain-deleted Sudan GP (GPdMuc); experiment: BLI competition on Sudan GPdMuc (upper table); competitor 16F6

Binder	% inhibition of binding [%]
B5	13.2
B6	10.8
B7	3.74
B8	17.9
B9	9.63

biological target: T2, mucin domain-deleted Zaire GP (GPdMuc) (Ebola (Zaire) virus (EBOV), UniProt Q05320 33-632); experiment: BLI, Fab, pH 7.4
T2 construct: also called Zaire GPdMuc; GP(Z)dMuc

Binder	Kd [nM]	koff [s⁻¹]	kon [M⁻¹ s⁻¹]
B10	13.3	0.0015	115000
B11	6.64	0.000778	118000

biological target: T1, mucin domain-deleted Sudan GP (GPdMuc); experiment: BLI, Fab, pH 7.4

Binder	Kd [nM]	koff [s⁻¹]	kon [M⁻¹ s⁻¹]
B10	0.372	5.38e-05	145000
B11	0.567	9.54e-05	168000

biological target: T1, mucin domain-deleted Sudan GP (GPdMuc); experiment: BLI competition on Sudan GPdMuc (upper table); competitor mAb166

Binder	% inhibition of binding [%]
B5	82
B6	87.5
B7	-6.27
B8	-2.64
B9	83.8

biological target: T1, mucin domain-deleted Sudan GP (GPdMuc); experiment: BLI competition on Sudan GPdMuc (upper table); competitor 316L

Binder	% inhibition of binding [%]
B5	8.13
B6	10.3
B7	0.2
B8	0.7
B9	39.4

biological target: T1, mucin domain-deleted Sudan GP (GPdMuc); experiment: ELISA on coated GP

Binder	EC50 [µg/mL]
B1	0.195
B2	0.499
B3	0.0266
B4	0.331

biological target: T2, mucin domain-deleted Zaire GP (GPdMuc); experiment: ELISA on coated GP

Binder	EC50 [µg/mL]
B12	1.5

biological target: T1, mucin domain-deleted Sudan GP (GPdMuc); experiment: ELISA on coated GP; remark: another data set of the same source

Binder	EC50 [µg/mL]
B12	0.12

biological target: T1, mucin domain-deleted Sudan GP (GPdMuc); experiment: BLI competition on Sudan GPdMuc (upper table); competitor 15H10

Binder	% inhibition of binding [%]
B5	14.7
B6	13.4
B7	4.35
B8	6.61
B9	12.1

biological target: T1, mucin domain-deleted Sudan GP (GPdMuc); experiment: BLI competition on Sudan GPdMuc (lower table); competitor 15H10

Binder	% inhibition of binding [%]
B1	29.6
B2	27.8
B3	15.7
B4	38.3

biological target: T1, mucin domain-deleted Sudan GP (GPdMuc); experiment: BLI competition on Sudan GPdMuc (lower table); competitor mAb166

Binder	% inhibition of binding [%]
B1	14.4
B2	20.7
B3	9.71
B4	10.1

biological target: T1, mucin domain-deleted Sudan GP (GPdMuc); experiment: BLI competition on Sudan GPdMuc (lower table); competitor 316L

Binder	% inhibition of binding [%]
B1	12.5
B2	23.3
B3	8.76
B4	10.3

biological target: T1, mucin domain-deleted Sudan GP (GPdMuc); experiment: BLI, Fab, pH 5.3

Binder	Kd [nM]	koff [s⁻¹]	kon [M⁻¹ s⁻¹]
B10	0.46	5.26e-05	112000
B11	0.64	0.000109	172000

biological target: T1, mucin domain-deleted Sudan GP (GPdMuc); experiment: ELISA on coated GP; remark: another data set of the same source

Binder	EC50 [µg/mL]
B5	0.03
B6	0.57
B7	0.02
B8	0.01
B9	0.86
